Consider 1 molecule from patent US20110135644A1 (ESBATECH AN ALCON BIOMEDICAL RESEARCH UNIT, published 2011).

This assay addresses T1, human TNF-alpha (Peprotech, London, UK) (human, UniProt P01375 77-233).
T1 construct: Commercial recombinant protein
The assay can be described thus: direct ELISA, plates coated with 0.5 µg/ml human TNF-alpha; ESBA105 standard series 50-0.5 ng/ml; used to quantify ESBA105 in serum and brain tissue. As for the experimental part:
ESBA105 concentrations were determined by triplicate measurements of each sample in a direct ELISA. 96-well plates (NUNC MaxiSorp; Omnilab, Mettmenstetten, Switzerland) were coated with 0.5 μg/ml human TNF-alpha (Peprotech, London, UK) in PBS overnight at 4° C. Between each of the following steps plates were washed three times with TBS-T (0.005% Tween20; Axon Lab, Baden-Dattwyl, Switzerland) using a micro plate washer (ASYS Atlantis, Salzburg, Austria). Unspecific binding sites were saturated by 1.5 hour incubation in PBS/1% BSA/0.2% Tween20. […] Bound ESBA105 was detected with a biotinylated affinity purified polyclonal rabbit anti-ESBA105 antibody (AK3A, ESBATech, Schlieren, Switzerland) that was diluted 1:20′000 in dilution buffer (1.5 h, room temperature). AK3A, in turn, was detected with poly-horseradish peroxidase streptavidin (Stereospecific Detection Technologies, Baesweiler, Germany) at a concentration of 0.2 ng/ml dilution buffer. […] Absorbance was measured at 450 nm in a plate reader (Sunrise; Tecan, Maennedorf, Switzerland) and ESBA105 concentrations in samples were calculated by polynomial regression from a standard curve (GraphPad Prism 4.03; GraphPad Software, Inc., San Diego, Calif.). The minimum quantifiable concentration (LOQ) of ESBA105 was 5 ng/ml in serum and 33 ng/ml in brain tissue, respectively.
A general note: An ELISA detects its analyte on a solid surface through an enzyme-linked reagent.

T1 sequence (P01375 77-233 limits assumed): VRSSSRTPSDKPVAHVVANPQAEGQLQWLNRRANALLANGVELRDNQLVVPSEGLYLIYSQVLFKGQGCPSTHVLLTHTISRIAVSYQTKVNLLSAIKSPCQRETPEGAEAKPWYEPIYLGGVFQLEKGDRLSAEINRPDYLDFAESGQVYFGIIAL

B1: ESBA105 (scFv)
scFv: MADIVMTQSPSSLSASVGDRVTLTCTASQSVSNDVVWYQQRPGKAPKLLIYSAFNRYTGVPSRFSGRGYGTDFTLTISSLQPEDVAVYYCQQDYNSPRTFGQGTKLEVKRGGGGSGGGGSGGGGSSGGGSQVQLVQSGAEVKKPGASVKVSCTASGYTFTHYGMNWVRQAPGKGLEWMGWINTYTGEPTYADKFKDRFTFSLETSASTVYMELTSLTSDDTAVYYCARERGDAMDYWGQGTLVTVSS
notes: also called ESBA105 scFv (α-TNFalpha); E105
For the molecule B1, the binding result is “binds”.
